{"source": "paper PMC7611331", "about": "(Nature microbiology, 2019)", "binders": {"B1": {"name": "RocS-ΔAH-6His (domain or fragment, Streptococcus pneumoniae R800, UniProt Q8DQ15 1-150, looked up)", "chain": "MSIEMTVSEIAEVLGLSRQAINNRVKELPEEDTDKNDKGVTVVTRSGLIKLEEIYKKTIFEDEPVSEDVKQRELMEILVDEKNAEILRLYEQLKAKDRQLSEKDEQMRIKDRQIAEKDKQLDQQQQLTLQAMKDQENLKLELDQAKEEVQ", "modifications": "labeled with the red dye NT-647"}}, "molecular_target": "T1, native FtsZ (Streptococcus pneumoniae R800, UniProt A0A0H2ZNE0 1-419)", "T1 sequence (looked up)": "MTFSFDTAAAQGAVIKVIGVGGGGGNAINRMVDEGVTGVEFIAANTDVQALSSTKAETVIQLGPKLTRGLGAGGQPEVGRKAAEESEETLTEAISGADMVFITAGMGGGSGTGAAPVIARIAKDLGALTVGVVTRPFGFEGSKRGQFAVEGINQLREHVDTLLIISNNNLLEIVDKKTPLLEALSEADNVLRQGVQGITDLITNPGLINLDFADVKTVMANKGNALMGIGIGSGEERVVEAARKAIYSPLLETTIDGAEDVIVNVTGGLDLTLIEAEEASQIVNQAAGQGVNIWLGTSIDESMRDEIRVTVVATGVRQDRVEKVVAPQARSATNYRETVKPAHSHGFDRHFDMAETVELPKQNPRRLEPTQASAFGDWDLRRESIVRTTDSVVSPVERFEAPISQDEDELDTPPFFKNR", "test": "MST"}
{"binder": "B1", "values": [{"measurement": "binding result", "value": "binds"}]}
